According to paper PMC3870659:

Target: integrin α4β7 on freshly isolated human primary B cells (human (endogenous in primary B cells)) (UniProt P13612)
Sequence of UniProt P13612 (P13612 34-1032, chain 1 of 2): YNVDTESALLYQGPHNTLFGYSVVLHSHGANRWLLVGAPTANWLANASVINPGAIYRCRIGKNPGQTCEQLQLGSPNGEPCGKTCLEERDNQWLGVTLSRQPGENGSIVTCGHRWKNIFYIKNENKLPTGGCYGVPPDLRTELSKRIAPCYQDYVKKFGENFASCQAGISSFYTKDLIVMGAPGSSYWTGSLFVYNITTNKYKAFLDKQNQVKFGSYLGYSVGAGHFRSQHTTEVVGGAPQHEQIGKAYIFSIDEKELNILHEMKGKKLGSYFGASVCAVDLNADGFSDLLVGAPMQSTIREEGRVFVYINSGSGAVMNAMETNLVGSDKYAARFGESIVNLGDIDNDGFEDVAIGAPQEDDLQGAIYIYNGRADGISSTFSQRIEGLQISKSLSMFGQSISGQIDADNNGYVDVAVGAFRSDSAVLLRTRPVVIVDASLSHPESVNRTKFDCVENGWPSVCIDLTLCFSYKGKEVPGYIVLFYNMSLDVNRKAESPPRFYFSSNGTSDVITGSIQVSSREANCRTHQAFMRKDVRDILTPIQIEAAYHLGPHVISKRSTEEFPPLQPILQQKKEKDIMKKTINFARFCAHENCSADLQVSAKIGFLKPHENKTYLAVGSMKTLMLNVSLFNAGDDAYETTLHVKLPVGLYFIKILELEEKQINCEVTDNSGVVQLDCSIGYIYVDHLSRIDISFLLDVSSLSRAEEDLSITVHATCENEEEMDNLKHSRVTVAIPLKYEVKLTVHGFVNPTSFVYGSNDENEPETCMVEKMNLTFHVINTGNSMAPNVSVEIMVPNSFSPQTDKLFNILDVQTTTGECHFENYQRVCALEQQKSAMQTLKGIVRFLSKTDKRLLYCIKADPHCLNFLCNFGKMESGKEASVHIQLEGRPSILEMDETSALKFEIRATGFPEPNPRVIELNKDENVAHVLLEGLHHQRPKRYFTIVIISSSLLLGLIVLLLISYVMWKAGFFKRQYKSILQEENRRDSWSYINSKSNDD
Sequence of UniProt P13612 (P26010 20-798, chain 2 of 2, further chain): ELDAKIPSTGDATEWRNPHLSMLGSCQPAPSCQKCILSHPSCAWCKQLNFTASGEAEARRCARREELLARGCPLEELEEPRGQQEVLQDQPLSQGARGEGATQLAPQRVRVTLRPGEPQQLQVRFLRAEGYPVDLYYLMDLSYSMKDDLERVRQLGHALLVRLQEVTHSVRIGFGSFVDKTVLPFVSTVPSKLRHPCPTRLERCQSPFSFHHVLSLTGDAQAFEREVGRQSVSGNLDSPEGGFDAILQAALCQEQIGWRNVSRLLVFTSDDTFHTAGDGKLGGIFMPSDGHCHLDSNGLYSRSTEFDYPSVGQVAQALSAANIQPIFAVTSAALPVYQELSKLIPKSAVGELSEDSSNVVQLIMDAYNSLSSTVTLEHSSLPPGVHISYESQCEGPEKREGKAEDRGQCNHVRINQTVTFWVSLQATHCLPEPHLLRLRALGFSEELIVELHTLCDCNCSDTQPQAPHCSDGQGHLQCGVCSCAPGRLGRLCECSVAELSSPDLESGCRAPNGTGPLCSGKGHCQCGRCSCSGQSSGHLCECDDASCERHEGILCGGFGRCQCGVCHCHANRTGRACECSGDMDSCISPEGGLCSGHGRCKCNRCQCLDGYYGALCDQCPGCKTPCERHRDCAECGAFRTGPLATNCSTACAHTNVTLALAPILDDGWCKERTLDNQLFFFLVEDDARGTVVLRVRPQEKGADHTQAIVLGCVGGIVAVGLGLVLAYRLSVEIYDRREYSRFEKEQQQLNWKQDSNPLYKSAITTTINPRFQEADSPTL

Substance: R66M gp120 (HIV-1 envelope protein gp120 of the early viral isolate R66M, subtype A/C) (natural protein)
- FCRL4 mRNA (microarray) in anti-IgM + CpG stimulated B cells, 6 h with gp120: 8 fold
